Measurements reported in patent US20220249679A1 (Mitsubishi Tanabe Pharma Corporation, priority 2018, published 2022).

T1: Human CD138 His (Homo sapiens, UniProt P18827)
T1 construct: His
T1 sequence (P18827 23-310): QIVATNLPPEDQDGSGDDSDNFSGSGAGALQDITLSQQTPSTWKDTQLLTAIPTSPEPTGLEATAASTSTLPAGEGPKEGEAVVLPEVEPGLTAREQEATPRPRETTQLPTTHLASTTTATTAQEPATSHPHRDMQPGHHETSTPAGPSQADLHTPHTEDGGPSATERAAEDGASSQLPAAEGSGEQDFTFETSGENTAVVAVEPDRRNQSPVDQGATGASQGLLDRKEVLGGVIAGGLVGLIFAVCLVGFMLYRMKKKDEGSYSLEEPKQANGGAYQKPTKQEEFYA


Tests used:
Human CD138 His = biological target: T1, Human CD138 His; experiment: SPR kinetic binding, human CD138; conditions: bivalent analyte fit
Protocol: Murine IgGs were purified from the hybridoma supernatants and the IgGs were subject to SPR (surface plasmon resonance) for kinetic binding measurements. Human or mouse CD138 His was immobilized on a GLM chip at […] on a BioRad Proteon. […] KDs were measured using bivalent analyte fit.

[1] = Size exclusion chromatography (SEC), percent monomer; type: physicochemical; conditions: Table 19, after protein A purification
Protocol: The antibodies were purified utilizing pH dependent, protein A purification (HiTrap MabSelect SuRe 5 mL). After purification, the antibodies were buffer exchanged into 1× DPBS using zeba spin columns. The recovery and relative stability as determined by size exclusion chromatography (SEC) analysis varied between the humanized antibodies (SEC profiles not shown). The nomenclature sometimes takes the form of hF6 xky-rep where h stands for humanized, F6 stands for F12P16F6-derived, x stands for the first letter of the first procedure used to generate the humanized heavy chain sequence (e.g., x can be a=abb, s=sdr, f=fra, or c=cdr), k stands for kappa light chain, and y stands for the first letter of the first procedure used to generate the humanized light chain sequence (a=abb, s=sdr, f=fra, c=cdr).

Row | Molecule | SEC % Monomer [1] [%] | further results
1 | F12P7G11: murine anti-CD138 hybridoma antibody; VH SEQ ID NO:85, VL SEQ ID NO:37 (antibody, listed as Mus musculus, V domains shown) VH: QVQLQQSGAELARPGASVKLSCKASGYTFSSHWMQWVKQRPGQGLEWIGAIYPGDGDTRFTQKFKGKATLTADKSSNTAYMQLSSLASEDSAVYYCARGIYYDRSRAMDYWGQGTSVTVSS VL: QIVLSQSPAILSASPGEKVTMTCRASSSVNYMHWYQQKPGSSPKHWIYATSYLASGVPARFSGSGSGTSYSLTISRVEAEDAATYYCQQWSSDPLTFGAGTKLELKR |  | hCD138 ka (Human CD138 His): 3.81e+06 M⁻¹ s⁻¹; hCD138 kd (Human CD138 His): 0.033 s⁻¹
2 | F13P14D3: murine anti-CD138 hybridoma antibody; VH SEQ ID NO:86, VL SEQ ID NO:38 (antibody, listed as Mus musculus, V domains shown) VH: EVQLVESGGGLVQPKGSLKLSCATSGFTFNTYAMNWVRQAPGKGLEWVARIRSKSNNYATYYVDSVKDRFTISRDDSQSTVHLQMNNLKTEDTAIYYCVTDYGHVYFDVWGAGTTVTVSS VL: NIVMTQSPKSMSMSVGQRVTLSCKASENVGSYVSWYQQKPEQSPKLLIYGASNRNTGVPDRFTGSGSATDFTLTISSVQAEDLADYHCGQSSRYPLTFGGGTKLELKR |  | hCD138 ka (Human CD138 His): 107000 M⁻¹ s⁻¹; hCD138 kd (Human CD138 His): 0.00104 s⁻¹
3 | F6 ckf-rep: humanized anti-CD138 antibody; VH SEQ ID NO:90, VL SEQ ID NO:43 (antibody, V domains shown, Humanized Heavy chain variable region; Humanized Light chain variable region) VH: QVQLVQSGAEVVKPGASVKLSCKASGYTFTSYYLYWVKKAPGQGLDWIGEIYPRSGGTNINEKFLSRVTLTADTSTSTAYLELSSLTSEDTAVYYCTRSLLYWGQGTTLTVSS VL: DVVMTQSPLSLSVTLGQPASISCKSSQSLLASDGKTYLNWLQQRPGQSPRRLIYLVSKLDSGVPNRFSGSGSGTDFTLQISRVEAEDVGLYYCWQGAHFPFTFGSGTKLEIKR | 95.3 | 
4 | F6 f1ka-rep: humanized anti-CD138 antibody; VH SEQ ID NO:91, VL SEQ ID NO:42 (antibody, V domains shown, Humanized Heavy chain variable region; Humanized Light chain variable region) VH: QVQLQQSGAEVVKPGASVKLSCKASGYTFTSYYLYWVKKAPGQGLDWIGEIYPRSGGTNINEKFLSRVTLTADTSTSTAYMDLSSLTSEDTAVYYCTRSLLYWGQGTTLTVSS VL: DVVMTQTPLSLSVTPGQPASISCKSSQSLLASDGKTYLNWLLQRPGQSPKRLIYLVSKLDSGVPNRFSGSGSGTDFTLQISRVEAEDVGLYYCMQGAHFPFTFGGGTKVEIKR | 92.9 | 
5 | F6 f1kf-rep: humanized anti-CD138 antibody; VH SEQ ID NO:91, VL SEQ ID NO:43 (antibody, V domains shown, Humanized Heavy chain variable region; Humanized Light chain variable region) VH: QVQLQQSGAEVVKPGASVKLSCKASGYTFTSYYLYWVKKAPGQGLDWIGEIYPRSGGTNINEKFLSRVTLTADTSTSTAYMDLSSLTSEDTAVYYCTRSLLYWGQGTTLTVSS VL: DVVMTQSPLSLSVTLGQPASISCKSSQSLLASDGKTYLNWLQQRPGQSPRRLIYLVSKLDSGVPNRFSGSGSGTDFTLQISRVEAEDVGLYYCWQGAHFPFTFGSGTKLEIKR | 94.3 | 
6 | F6 f1ks-rep: humanized anti-CD138 antibody; VH SEQ ID NO:91, VL SEQ ID NO:41 (antibody, V domains shown, Humanized Heavy chain variable region; Humanized Light chain variable region) VH: QVQLQQSGAEVVKPGASVKLSCKASGYTFTSYYLYWVKKAPGQGLDWIGEIYPRSGGTNINEKFLSRVTLTADTSTSTAYMDLSSLTSEDTAVYYCTRSLLYWGQGTTLTVSS VL: DVVMTQTPLSLSVTPGQPASISCKSSQSLLASDGKTYLNWLLQRPGQSPKRLIYLVSKLDSGVPNRFSGSGSGTDFTLQISRVEAEDVGLYYCWQGAHFPFTFGSGTKLEIKR | 95.6 | 
7 | F6 f2ka-rep: humanized anti-CD138 antibody; VH SEQ ID NO:92, VL SEQ ID NO:42; two lots (antibody, V domains shown, Humanized Heavy chain variable region; Humanized Light chain variable region, humanized anti-CD138 antibody; two lots) VH: QVQLQQSGAEVVKPGASVKLSCKASGYTFTSYYLYWVKKAPGQGLDWIGEIYPRSGGTNINEKFLSRVTITADESTSTVYMQLSSLTSEDSAVYYCTRSLLYWGQGTTLTVSS VL: DVVMTQTPLSLSVTPGQPASISCKSSQSLLASDGKTYLNWLLQRPGQSPKRLIYLVSKLDSGVPNRFSGSGSGTDFTLQISRVEAEDVGLYYCMQGAHFPFTFGGGTKVEIKR |  | SEC % Monomer ([1]; listed as F6 f2ka-rep (Lot 1)): 79.1%; SEC % Monomer ([1]; listed as F6 f2ka-rep (Lot 2)): 95%
8 | F6 f2kf-rep: humanized anti-CD138 antibody; VH SEQ ID NO:92, VL SEQ ID NO:43 (antibody, V domains shown, Humanized Heavy chain variable region; Humanized Light chain variable region) VH: QVQLQQSGAEVVKPGASVKLSCKASGYTFTSYYLYWVKKAPGQGLDWIGEIYPRSGGTNINEKFLSRVTITADESTSTVYMQLSSLTSEDSAVYYCTRSLLYWGQGTTLTVSS VL: DVVMTQSPLSLSVTLGQPASISCKSSQSLLASDGKTYLNWLQQRPGQSPRRLIYLVSKLDSGVPNRFSGSGSGTDFTLQISRVEAEDVGLYYCWQGAHFPFTFGSGTKLEIKR | 95.1 | 
9 | F6 f2ks-rep: humanized anti-CD138 antibody; VH SEQ ID NO:92, VL SEQ ID NO:41 (antibody, V domains shown, Humanized Heavy chain variable region; Humanized Light chain variable region) VH: QVQLQQSGAEVVKPGASVKLSCKASGYTFTSYYLYWVKKAPGQGLDWIGEIYPRSGGTNINEKFLSRVTITADESTSTVYMQLSSLTSEDSAVYYCTRSLLYWGQGTTLTVSS VL: DVVMTQTPLSLSVTPGQPASISCKSSQSLLASDGKTYLNWLLQRPGQSPKRLIYLVSKLDSGVPNRFSGSGSGTDFTLQISRVEAEDVGLYYCWQGAHFPFTFGSGTKLEIKR | 77.6 | 
10 | F6 aka-rep: humanized anti-CD138 antibody; VH SEQ ID NO:89, VL SEQ ID NO:42 (antibody, V domains shown, Humanized Heavy chain variable region; Humanized Light chain variable region) VH: QVQLVQSGAEVVKPGASVKLSCKASGYTFTSYYLYWVKKAPGQGLDWIGEIYPRSGGTNYAEKFQGRVTLTADTSTSTAYLELSSLTSEDTAVYYCTRSLLYWGQGTTLTVSS VL: DVVMTQTPLSLSVTPGQPASISCKSSQSLLASDGKTYLNWLLQRPGQSPKRLIYLVSKLDSGVPNRFSGSGSGTDFTLQISRVEAEDVGLYYCMQGAHFPFTFGGGTKVEIKR | 75.2 | 
11 | F6 akf-rep: humanized anti-CD138 antibody; VH SEQ ID NO:89, VL SEQ ID NO:43 (antibody, V domains shown, Humanized Heavy chain variable region; Humanized Light chain variable region) VH: QVQLVQSGAEVVKPGASVKLSCKASGYTFTSYYLYWVKKAPGQGLDWIGEIYPRSGGTNYAEKFQGRVTLTADTSTSTAYLELSSLTSEDTAVYYCTRSLLYWGQGTTLTVSS VL: DVVMTQSPLSLSVTLGQPASISCKSSQSLLASDGKTYLNWLQQRPGQSPRRLIYLVSKLDSGVPNRFSGSGSGTDFTLQISRVEAEDVGLYYCWQGAHFPFTFGSGTKLEIKR | 95.4 | 
12 | F6 aks-rep: humanized anti-CD138 antibody; VH SEQ ID NO:89, VL SEQ ID NO:41 (antibody, V domains shown, Humanized Heavy chain variable region; Humanized Light chain variable region) VH: QVQLVQSGAEVVKPGASVKLSCKASGYTFTSYYLYWVKKAPGQGLDWIGEIYPRSGGTNYAEKFQGRVTLTADTSTSTAYLELSSLTSEDTAVYYCTRSLLYWGQGTTLTVSS VL: DVVMTQTPLSLSVTPGQPASISCKSSQSLLASDGKTYLNWLLQRPGQSPKRLIYLVSKLDSGVPNRFSGSGSGTDFTLQISRVEAEDVGLYYCWQGAHFPFTFGSGTKLEIKR | 95.2 | 
13 | F6 cka-rep: humanized anti-CD138 antibody; VH SEQ ID NO:90, VL SEQ ID NO:42 (antibody, V domains shown, Humanized Heavy chain variable region; Humanized Light chain variable region) VH: QVQLVQSGAEVVKPGASVKLSCKASGYTFTSYYLYWVKKAPGQGLDWIGEIYPRSGGTNINEKFLSRVTLTADTSTSTAYLELSSLTSEDTAVYYCTRSLLYWGQGTTLTVSS VL: DVVMTQTPLSLSVTPGQPASISCKSSQSLLASDGKTYLNWLLQRPGQSPKRLIYLVSKLDSGVPNRFSGSGSGTDFTLQISRVEAEDVGLYYCMQGAHFPFTFGGGTKVEIKR | 88.8 | 
